Source: the supplement of paper PMC11246515
± gives the standard deviation of the averaged measurements.

Assay: total protein half-life in vivo (active degradation + dilution); higher = more stable protein
[1] = E. coli NCM3722 delta-hslV, growth: N-lim chemostat, doubling time 6 h
[2] = E. coli NCM3722 delta-lon, growth: N-lim chemostat, doubling time 6 h
[3] = E. coli NCM3722 delta-smpB, growth: N-lim chemostat, doubling time 6 h
[4] = wild type E. coli NCM3722, growth: C-lim chemostat, doubling time 3 h
[5] = wild type E. coli NCM3722, growth: C-lim chemostat, doubling time 6 h
[6] = wild type E. coli NCM3722, growth: C-lim chemostat, doubling time 12 h
[7] = wild type E. coli NCM3722, growth: N-lim chemostat, doubling time 6 h
[8] = wild type E. coli NCM3722, growth: N-lim chemostat, doubling time 12 h
[9] = wild type E. coli NCM3722, growth: P-lim chemostat, doubling time 6 h
[10] = wild type E. coli NCM3722, growth: P-lim chemostat, doubling time 12 h
[11] = E. coli NCM3722 delta-clpP delta-lon delta-hslV, growth: N-lim chemostat, doubling time 6 h
[12] = E. coli NCM3722 delta-clpP, growth: N-lim chemostat, doubling time 6 h

Sequence	total protein half-life in vivo [1] [h]	total protein half-life in vivo [2] [h]	total protein half-life in vivo [3] [h]	total protein half-life in vivo [4] [h]	total protein half-life in vivo [5] [h]	total protein half-life in vivo [6] [h]	total protein half-life in vivo [7] [h]	total protein half-life in vivo [8] [h]	total protein half-life in vivo [9] [h]	total protein half-life in vivo [10] [h]	total protein half-life in vivo [11] [h]	total protein half-life in vivo [12] [h]
MNKFLFAAALIVSGLLVGCNQLTQYTITEQEINQSLAKHNNFSKDIGLPGVADAHIVLTNLTSQIGREEPNKVTLTGDANLDMNSLFGSQKATMKLKLKALPVFDKEKGAIFLKEMEVVDATVQPEKMQTVMQTLLPYLNQALRNYFNQQPAYVLREDGSQGEAMAKKLAKGIEVKPGEIVIPFTD [P0AB26]	6.63 ± 0.84	6.72 ± 0.38	6.38 ± 0.15	3.55 ± 0.36	5.37 ± 0.43	11.9 ± 1.5	5.75 ± 0.34	13.4 ± 0.43	6.01 ± 0.25	12.36 ± 0.048	–	–
MNKILLQCDNLCKRYQEGSVQTDVLHNVSFSVGEGEMMAIVGSSGSGKSTLLHLLGGLDTPTSGDVIFNGQPMSKLSSAAKAELRNQKLGFIYQFHHLLPDFTALENVAMPLLIGKKKPAEINSRALEMLKAVGLDHRANHRPSELSGGERQRVAIARALVNNPRLVLADEPTGNLDARNADSIFQLLGELNRLQGTAFLVVTHDLQLAKRMSRQLEMRDGRLTAELSLMGAE	–	6.32 ± 0.21	–	3.22	6.42 ± 0.012	10.8 ± 0.94	5.78 ± 0.77	13.1 ± 1.3	5.48 ± 0.27	–	6.92	6.37 ± 0.67
MNKNMAGILSAAAVLTMLAGCTAYDRTKDQFVQPVVKDVKKGMSRAQVAQIAGKPSSEVSMIHARGTCQTYILGQRDGKAETYFVALDDTGHVINSGYQTCAEYDTDPQAAK [P0ADB1]	–	–	5.74 ± 0.22	3.03 ± 0.22	6.14 ± 0.68	10.4 ± 1.6	–	12.3 ± 2.4	5.73 ± 0.26	12.6 ± 0.59	5.54 ± 0.094	5.7 ± 0.36
MNKSRQKELTRWLKQQSVISQRWLNISRLLGFVSGILIIAQAWFMARILQHMIMENIPREALLLPFTLLVLTFVLRAWVVWLRERVGYHAGQHIRFAIRRQVLDRLQQAGPAWIQGKPAGSWATLVLEQIDDMHDYYARYLPQMALAVSVPLLIVVAIFPSNWAAALILLGTAPLIPLFMALVGMGAADANRRNFLALARLSGHFLDRLRGMETLRIFGRGEAEIESIRSASEDFRQRTMEVLRLAFLSSGILEFFTSLSIALVAVYFGFSYLGELDFGHYDTGVTLAAGFLALILAPEFFQPLRDLGTFYHAKAQAVGAADSLKTFMETPLAHPQRGEAELASTDPVTIEAEELFITSPEGKTLAGPLNFTLPAGQRAVLVGRSGSGKSSLLNALSGFLSYQGSLRINGIELRDLSPESWRKHLSWVGQNPQLPAATLRDNVLLARPDASEQELQAALDNAWVSEFLPLLPQGVDTPVGDQAARLSVGQAQRVAVARALLNPCSLLLLDEPAASLDAHSEQRVMEALNAASLRQTTLMVTHQLEDLADWDVIWVMQDGRIIEQGRYAELSVAGGPFATLLAHRQEEI	5.94 ± 0.14	6.1322 ± 0.0016	5.95 ± 0.69	3.54 ± 0.42	5.88 ± 0.21	–	6.42 ± 0.35	12.7 ± 1.1	6.33 ± 0.11	11.8 ± 0.91	–	6.56 ± 0.17
MNKTAIALLALLASSASLAATPWQKITQPVPGSAQSIGSFSNGCIVGADTLPIQSEHYQVMRTDQRRYFGHPDLVMFIQRLSSQVSNLGMGTVLIGDMGMPAGGRFNGGHASHQTGLDVDIFLQLPKTRWTSAQLLRPQALDLVSRDGKHVVSTLWKPEIFSLIKLAAQDKDVTRIFVNPAIKQQLCLDAGTDRDWLRKVRPWFQHRAHMHVRLRCPADSLECEDQPLPPSGDGCGAELQSWFEPPKPGTTKPEKKTPPPLPPSCQALLDEHVI [P0C0T5]	0.831	–	–	0.792	–	–	–	–	–	–	–	–
MNKTLIAAAVAGIVLLASNAQAQTVPEGYQLQQVLMMSRHNLRAPLANNGSVLEQSTPNKWPEWDVPGGQLTTKGGVLEVYMGHYMREWLAEQGMVKSGECPPPYTVYAYANSLQRTVATAQFFITGAFPGCDIPVHHQEKMGTMDPTFNPVITDDSAAFSEQAVAAMEKELSKLQLTDSYQLLEKIVNYKDSPACKEKQQCSLVDGKNTFSAKYQQEPGVSGPLKVGNSLVDAFTLQYYEGFPMDQVAWGEIKSDQQWKVLSKLKNGYQDSLFTSPEVARNVAKPLVSYIDKALVTDRTSAPKITVLVGHDSNIASLLTALDFKPYQLHDQNERTPIGGKIVFQRWHDSKANRDLMKIEYVYQSAEQLRNADALTLQAPAQRVTLELSGCPIDADGFCPMDKFDSVLNEAVK	6.81 ± 0.17	6.9 ± 0.04	5.96 ± 0.12	3.51 ± 0.45	6.07 ± 0.17	12 ± 1.7	6.05 ± 0.63	11.1 ± 1.5	6.4 ± 1.7	12.3 ± 1.5	5.71 ± 0.47	–
MNKYLKYFSGTLVGLMLSTSAFAAAEYAVVLKTLSNPFWVDMKKGIEDEAKTLGVSVDIFASPSEGDFQSQLQLFEDLSNKNYKGIAFAPLSSVNLVMPVARAWKKGIYLVNLDEKIDMDNLKKAGGNVEAFVTTDNVAVGAKGASFIIDKLGAEGGEVAIIEGKAGNASGEARRNGATEAFKKASQIKLVASQPADWDRIKALDVATNVLQRNPNIKAIYCANDTMAMGVAQAVANAGKTGKVLVVGTDGIPEARKMVEAGQMTATVAQNPADIGATGLKLMVDAEKSGKVIPLDKAPEFKLVDSILVTQ	5.783 ± 0.043	6.64 ± 0.52	5.82 ± 0.24	3.15 ± 0.034	6.52 ± 2	9.15 ± 0.44	5.9 ± 0.064	12.3 ± 0.66	5.91 ± 0.37	11.3 ± 0.52	4 ± 0.15	5.04 ± 0.31
MNKYTINDITRASGGFAMLAVDQREAMRMMFAAAGAPAPVADSVLTDFKVNAAKALSPYASAILVDQQFCYRQVVEQNAIAKSCAMIVAADEFIPGNGIPVDSVVIDRKINPLQIKQDGGKALKLLVLWRSDEDAQQRLDMVKEFNELCHSHGLVSIIEPVVRPPRRGDKFDREQAIIDAAKELGDSGADLYKVEMPLYGKGPQQELLCASQRLNDHINMPWVILSSGVDEKLFPRAVRVAMTAGASGFLAGRAVWASVVGLPDNELMLRDVCAPKLQQLGDIVDEMMAKRR	4.42 ± 0.41	5.52 ± 0.98	4.09 ± 0.52	2.93 ± 0.18	6.51 ± 1.8	8.63 ± 1.5	4.19 ± 0.58	6.3 ± 0.93	5.05 ± 0.15	10.2 ± 0.62	5.2 ± 0.61	4.38 ± 0.96
MNLDDIINSMMPEVYQRLSTAVELGKWPDGVALTEEQKENCLQLVMLWQARHNIEAQHMTIDTNGQMVMKSKQQLKEDFGISAKPIAMFK	–	–	–	0.231 ± 0.0036	0.237 ± 0.16	0.116 ± 0.16	0.172	–	0.371 ± 0.17	1.17 ± 1.3	4.42 ± 2.1	0.712
MNLMTTITGVVLAGGKARRMGGVDKGLLELNGKPLWQHVADALMTQLSHVVVNANRHQEIYQASGLKVIEDSLADYPGPLAGMLSVMQQEAGEWFLFCPCDTPYIPPDLAARLNHQRKDAPVVWVHDGERDHPTIALVNRAIEPLLLEYLQAGERRVMVFMRLAGGHAVDFSDHKDAFVNVNTPEELARWQEKR	3.728 ± 0.033	4.1 ± 0.19	3.59 ± 0.12	2.95 ± 0.26	5.9 ± 0.46	9.71 ± 3.2	4.46	6.67 ± 1.5	5.046 ± 0.009	10.9 ± 0.43	4.29 ± 0.5	3.95 ± 0.19
